The text below walks through data of patent US20240401082A1 (Sanofi, published 2024).

Changes are numbered by the printed parent chain. Names may count otherwise.

In general, Kd refers to a measure of binding affinity in units of concentration. Higher therefore signals a looser complex. A word on the koff: it is the rate constant with which the complex falls apart. Low readings indicate slow dissociation, high ones fast dissociation. By kon is commonly meant the second-order rate constant of association. A low value points to slow association.

T1: human complement C1s enzyme (activated C1s) (human, UniProt P09871 16-437; P09871 438-688)
T1 sequence 1: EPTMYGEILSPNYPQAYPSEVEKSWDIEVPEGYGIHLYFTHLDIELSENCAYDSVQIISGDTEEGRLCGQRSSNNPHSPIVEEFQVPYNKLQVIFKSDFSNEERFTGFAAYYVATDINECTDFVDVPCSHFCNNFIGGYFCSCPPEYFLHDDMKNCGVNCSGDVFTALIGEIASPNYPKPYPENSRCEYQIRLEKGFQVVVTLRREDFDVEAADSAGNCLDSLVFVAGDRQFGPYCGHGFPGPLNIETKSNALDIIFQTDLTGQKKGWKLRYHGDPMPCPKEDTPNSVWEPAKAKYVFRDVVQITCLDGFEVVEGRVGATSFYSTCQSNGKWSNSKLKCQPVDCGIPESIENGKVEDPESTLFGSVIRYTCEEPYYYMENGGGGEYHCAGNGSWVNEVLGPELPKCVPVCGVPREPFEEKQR
T1 sequence 2: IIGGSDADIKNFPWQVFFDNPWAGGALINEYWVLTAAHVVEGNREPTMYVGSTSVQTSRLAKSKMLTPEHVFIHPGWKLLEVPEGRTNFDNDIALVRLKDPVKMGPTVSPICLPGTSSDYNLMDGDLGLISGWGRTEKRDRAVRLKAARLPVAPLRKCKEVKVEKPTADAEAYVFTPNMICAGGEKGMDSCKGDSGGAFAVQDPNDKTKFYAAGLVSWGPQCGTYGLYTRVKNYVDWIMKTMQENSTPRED

B1: construct #15: αC1s scFab-(G4S)3-αBb scFv (bispecific antibody)
chain: DIVLTQSPDSLAVSLGERATISCKASQSVDYDGDSYMNWYQQKPGQPPKILIYDASNLESGIPARFSGSGSGTDFTLTISSLEPEDFAIYYCQQSNEDPWTFGGGTKVEIKRTVAAPSVFIFPPSDEQLKSGTASVVCLLNNFYPREAKVQWKVDNALQSGNSQESVTEQDSKDSTYSLSSTLTLSKADYEKHKVYACEVTHQGLSSPVTKSFNRGECGGGGSGGGGSGGGGSGGGGSGGGGSGGGGSGGGGSQVQLVQSGAEVKKPGASVKLSCTASGFNIKDDYIHWVKQAPGQGLEWIGRIDPADGHTKYAPKFQVKVTITADTSTSTAYLELSSLRSEDTAVYYCARYGYGREVFDYWGQGTTVTVSSASTKGPSVFPLAPCSRSTSESTAALGCLVKDYFPEPVTVSWNSGALTSGVHTFPAVLQSSGLYSLSSVVTVPSSSLGTKTYTCNVDHKPSNTKVDKRVGGGGSGGGGSGGGGSEVQLVESGGGLVKPGGSLRLSCAASGFTFSNYAMSWVRQAPGKRLEWVATISNRGSYTYYPDSVKGRFTISRDNAKNSLYLQMNSLRAEDTALYYCARERPMDYWGQGTLVTVSSGGGGSGGGGSGGGGSDIQMTQSPSTLSASVGDRVTITCKASQDVGTAVAWYQQKPGKAPKLLIYWASTRHTGVPDRFSGSGSGTDFTLTISSLQAEDFAVYFCHQHSSNPLTFGQGTKLEIK
notes: Residues 1-20 were left out as the signal peptide, which is marked by boldface only
B2: construct #16: αC1s scFab-(G4S)3-αBb scFv-CM (bispecific antibody)
chain: B1 chain with Q42E, Q292K, Q524E, Q653K
notes: as for B1
B3: construct #7: αC1s scFab-(G4S)3-αBb scFab (bispecific antibody)
chain: DIVLTQSPDSLAVSLGERATISCKASQSVDYDGDSYMNWYQQKPGQPPKILIYDASNLESGIPARFSGSGSGTDFTLTISSLEPEDFAIYYCQQSNEDPWTFGGGTKVEIKRTVAAPSVFIFPPSDEQLKSGTASVVCLLNNFYPREAKVQWKVDNALQSGNSQESVTEQDSKDSTYSLSSTLTLSKADYEKHKVYACEVTHQGLSSPVTKSFNRGECGGGGSGGGGSGGGGSGGGGSGGGGSGGGGSGGGGSQVQLVQSGAEVKKPGASVKLSCTASGFNIKDDYIHWVKQAPGQGLEWIGRIDPADGHTKYAPKFQVKVTITADTSTSTAYLELSSLRSEDTAVYYCARYGYGREVFDYWGQGTTVTVSSASTKGPSVFPLAPCSRSTSESTAALGCLVKDYFPEPVTVSWNSGALTSGVHTFPAVLQSSGLYSLSSVVTVPSSSLGTKTYTCNVDHKPSNTKVDKRVGGGGSGGGGSGGGGSDIQMTQSPSTLSASVGDRVTITCKASQDVGTAVAWYQQKPGKAPKLLIYWASTRHTGVPDRFSGSGSGTDFTLTISSLQAEDFAVYFCHQHSSNPLTFGQGTKLEIKRTVAAPSVFIFPPSDEQLKSGTASVVCLLNNFYPREAKVQWKVDNALQSGNSQESVTEQDSKDSTYSLSSTLTLSKADYEKHKVYACEVTHQGLSSPVTKSFNRGECGGGGSGGGGSGGGGSGGGGSGGGGSGGGGSGGGGSEVQLVESGGGLVKPGGSLRLSCAASGFTFSNYAMSWVRQAPGKRLEWVATISNRGSYTYYPDSVKGRFTISRDNAKNSLYLQMNSLRAEDTALYYCARERPMDYWGQGTLVTVSSASTKGPSVFPLAPCSRSTSESTAALGCLVKDYFPEPVTVSWNSGALTSGVHTFPAVLQSSGLYSLSSVVTVPSSSLGTKTYTCNVDHKPSNTKVDKRV
notes: Signal peptide marked by boldface only
B4: construct #11: αC1s scFab-(G4S)3-αBb scFab-CM (bispecific antibody)
chain: B3 chain with Q42E, Q292K, Q523K, S599A, N622K, Q773E, T919E
notes: as for B1
B5: construct #17: αC1s F2A Fab-(G4S)3-αBb scFab (bispecific antibody)
light: DIVLTQSPDSLAVSLGERATISCKASQSVDYDGDSYMNWYQQKPGQPPKILIYDASNLESGIPARFSGSGSGTDFTLTISSLEPEDFAIYYCQQSNEDPWTFGGGTKVEIKRTVAAPSVFIFPPSDEQLKSGTASVVCLLNNFYPREAKVQWKVDNALQSGNSQESVTEQDSKDSTYSLSSTLTLSKADYEKHKVYACEVTHQGLSSPVTKSFNRGEC
chain: QVQLVQSGAEVKKPGASVKLSCTASGFNIKDDYIHWVKQAPGQGLEWIGRIDPADGHTKYAPKFQVKVTITADTSTSTAYLELSSLRSEDTAVYYCARYGYGREVFDYWGQGTTVTVSSASTKGPSVFPLAPCSRSTSESTAALGCLVKDYFPEPVTVSWNSGALTSGVHTFPAVLQSSGLYSLSSVVTVPSSSLGTKTYTCNVDHKPSNTKVDKRVGGGGSGGGGSGGGGSDIQMTQSPSTLSASVGDRVTITCKASQDVGTAVAWYQQKPGKAPKLLIYWASTRHTGVPDRFSGSGSGTDFTLTISSLQAEDFAVYFCHQHSSNPLTFGQGTKLEIKRTVAAPSVFIFPPSDEQLKSGTASVVCLLNNFYPREAKVQWKVDNALQSGNSQESVTEQDSKDSTYSLSSTLTLSKADYEKHKVYACEVTHQGLSSPVTKSFNRGECGGGGSGGGGSGGGGSGGGGSGGGGSGGGGSGGGGSEVQLVESGGGLVKPGGSLRLSCAASGFTFSNYAMSWVRQAPGKRLEWVATISNRGSYTYYPDSVKGRFTISRDNAKNSLYLQMNSLRAEDTALYYCARERPMDYWGQGTLVTVSSASTKGPSVFPLAPCSRSTSESTAALGCLVKDYFPEPVTVSWNSGALTSGVHTFPAVLQSSGLYSLSSVVTVPSSSLGTKTYTCNVDHKPSNTKVDKRV
B6: construct #18: αC1s GT2A Fab-(G4S)3-αBb scFab (bispecific antibody)
light: B5 light
chain: B5 chain

The first test addresses T1, human complement C1s enzyme (activated …). Nature of the test: cell-based or functional assay.
In the case of B1, the “IC50 CP (Wieslab)” value was determined as 34.7 nM.
B2: the “IC50 CP (Wieslab)” value was determined as 35.4 nM.
Regarding B3, the “IC50 CP (Wieslab)” value came out at 45.9 nM.
As for B4, the “IC50 CP (Wieslab)” value was determined as 49.7 nM.

The target of the next test is T2, human complement factor Bb (human, UniProt P00751 260-764). Nature of the test: cell-based or functional assay.
T2 sequence (P00751 260-764): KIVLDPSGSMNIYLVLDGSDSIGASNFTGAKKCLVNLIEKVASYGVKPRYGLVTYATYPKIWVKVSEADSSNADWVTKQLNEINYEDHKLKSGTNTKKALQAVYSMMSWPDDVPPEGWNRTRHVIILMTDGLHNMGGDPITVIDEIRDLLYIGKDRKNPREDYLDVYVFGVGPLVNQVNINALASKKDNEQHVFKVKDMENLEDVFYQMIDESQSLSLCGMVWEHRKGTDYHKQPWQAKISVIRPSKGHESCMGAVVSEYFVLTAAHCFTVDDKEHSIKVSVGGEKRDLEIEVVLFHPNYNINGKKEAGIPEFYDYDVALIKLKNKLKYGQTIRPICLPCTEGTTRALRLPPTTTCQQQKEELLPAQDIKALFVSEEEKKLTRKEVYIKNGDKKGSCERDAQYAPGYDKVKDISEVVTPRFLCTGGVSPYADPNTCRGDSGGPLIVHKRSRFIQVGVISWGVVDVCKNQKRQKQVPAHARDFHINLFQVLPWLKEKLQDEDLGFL
With B1, the “IC50 AP (Wieslab)” value turned out to be 405 nM.
Consider B2, for which the “IC50 AP (Wieslab)” value came out at 586 nM.
The same measure, in the same setting: to B3 belongs 570 nM.
B4: the “IC50 AP (Wieslab); curve not saturated, estimated” value was about 1000 nM.

The target in another test is T1, human complement C1s enzyme (activated …). Kind of test: BLI (Octet), biotinylated target on streptavidin sensor. The source says:
(§1) Bio-layer interferometry (BLI) was used to assess the recombinant proteins' target engagement to and binding affinity for complement C1s enzyme (active C1s or “C1s” herein) and factor Bb (Bb) (Complement Technology, Tyler, TX, USA). C1s and Bb were biotinylated with EZ-Link™ Sulfo-NHS-LC-LC-Biotin (Thermo Fisher, Waltham, MA, USA) according to manufacturer instructions. Biotinylated C1s or Bb was loaded on Octet® Streptavidin (SA) Biosensors (Sartorius, Göttingen, Germany), followed by a concentration range of purified proteins. To assess dual target engagement, biotinylated active C1s or Bb was loaded onto sensors, followed by purified proteins (“first association phase”), followed by the non-captured complement target (Bb or active C1s, non-biotinylated; “second association phase”). The assays were performed at 30° C. using PBS with 0.1% Tween 20 as a diluent (FIG. 3).
For orientation: BLI is a label-free optical method that tracks binding on a fibre tip over time.
On to B1, for which the dissociation constant Kd is 1.6 nM, the off-rate constant (koff) was 0.00057 s⁻¹ and the kon turned out to be 370000 M⁻¹ s⁻¹.
In the same order, the values of B2 are 1.4 nM, 0.00051 s⁻¹ and 360000 M⁻¹ s⁻¹.
In the same order, the values of B3 are 1.8 nM, 0.00047 s⁻¹ and 260000 M⁻¹ s⁻¹.
In turn, B4 yielded a Kd of 2.7 nM, a koff of 0.00058 s⁻¹ and a kon of 210000 M⁻¹ s⁻¹.

In another test the target is T2, human complement factor Bb. The description is as above.
Text: as §1
As for B1, binding was put at a Kd of 3.9 nM, the koff turned out to be 0.00045 s⁻¹ and the kon is 120000 M⁻¹ s⁻¹.
In the same order, the values of B2 are 2.5 nM, 0.00023 s⁻¹ and 90000 M⁻¹ s⁻¹.
In the same order, the values of B3 are 9.3 nM, 0.00054 s⁻¹ and 60000 M⁻¹ s⁻¹.
In the same order, the values of B4 are 8.8 nM, 0.00051 s⁻¹ and 60000 M⁻¹ s⁻¹.

The target of a further test is T1, human complement C1s enzyme (activated …). Nature of the test: BLI dual target engagement: one target captured, then protein, then the other target.
Text: as §1
Consider B5, for which the binding result is recorded as “binds”.
Still for that read-out and setting: to B6 belongs “binds”.

The target of another test is T2, human complement factor Bb. The test is described as above.
Text: as §1
Turning to B5, the binding result is recorded as “binds”.
Same read-out and setting: to B6 belongs “binds”.
